T1: colFD-NL
T1 chain: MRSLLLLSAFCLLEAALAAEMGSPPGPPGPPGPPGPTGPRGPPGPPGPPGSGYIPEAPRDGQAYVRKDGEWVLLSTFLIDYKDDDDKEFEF

B1: Hsp47-HT, P19324 Y353A (protein)
chain: AEVKKPLEAAAPGTAEKLSSKATTLAERSTGLAFSLYQAMAKDQAVENILLSPLVVASSLGLVSLGGKATTASQAKAVLSAEKLRDEEVHTGLGELLRSLSNSTARNVTWKLGSRLYGPSSVSFADDFVRSSKQHYNCEHSKINFRDKRSALQSINEWASQTTDGKLPEVTKDVERTDGALLVNAMFFKPHWDEKFHHKMVDNRGFMVTRSYTVGVTMMHRTGLYNYYDDEKEKLQMVEMPLAHKLSSLIILMPHHVEPLERLEKLLTKEQLKAWMGKMQKKAVAISLPKGVVEVTHDLQKHLAGLGLTEAIDKNKADLSRMSGKKDLYLASVFHATAFEWDTEGNPFDQDIAGREELRSPKLFYADHPFIFLVRDNQSGSLLFIGRLVRPKGDKMRDEL
B2: Hsp47-HT, P19324 Y353L (protein)
chain: AEVKKPLEAAAPGTAEKLSSKATTLAERSTGLAFSLYQAMAKDQAVENILLSPLVVASSLGLVSLGGKATTASQAKAVLSAEKLRDEEVHTGLGELLRSLSNSTARNVTWKLGSRLYGPSSVSFADDFVRSSKQHYNCEHSKINFRDKRSALQSINEWASQTTDGKLPEVTKDVERTDGALLVNAMFFKPHWDEKFHHKMVDNRGFMVTRSYTVGVTMMHRTGLYNYYDDEKEKLQMVEMPLAHKLSSLIILMPHHVEPLERLEKLLTKEQLKAWMGKMQKKAVAISLPKGVVEVTHDLQKHLAGLGLTEAIDKNKADLSRMSGKKDLYLASVFHATAFEWDTEGNPFDQDILGREELRSPKLFYADHPFIFLVRDNQSGSLLFIGRLVRPKGDKMRDEL
B3: Hsp47-HT, P19324 I352L (protein)
chain: AEVKKPLEAAAPGTAEKLSSKATTLAERSTGLAFSLYQAMAKDQAVENILLSPLVVASSLGLVSLGGKATTASQAKAVLSAEKLRDEEVHTGLGELLRSLSNSTARNVTWKLGSRLYGPSSVSFADDFVRSSKQHYNCEHSKINFRDKRSALQSINEWASQTTDGKLPEVTKDVERTDGALLVNAMFFKPHWDEKFHHKMVDNRGFMVTRSYTVGVTMMHRTGLYNYYDDEKEKLQMVEMPLAHKLSSLIILMPHHVEPLERLEKLLTKEQLKAWMGKMQKKAVAISLPKGVVEVTHDLQKHLAGLGLTEAIDKNKADLSRMSGKKDLYLASVFHATAFEWDTEGNPFDQDLYGREELRSPKLFYADHPFIFLVRDNQSGSLLFIGRLVRPKGDKMRDEL
B4: Hsp47-HT, P19324 I352F (protein)
chain: AEVKKPLEAAAPGTAEKLSSKATTLAERSTGLAFSLYQAMAKDQAVENILLSPLVVASSLGLVSLGGKATTASQAKAVLSAEKLRDEEVHTGLGELLRSLSNSTARNVTWKLGSRLYGPSSVSFADDFVRSSKQHYNCEHSKINFRDKRSALQSINEWASQTTDGKLPEVTKDVERTDGALLVNAMFFKPHWDEKFHHKMVDNRGFMVTRSYTVGVTMMHRTGLYNYYDDEKEKLQMVEMPLAHKLSSLIILMPHHVEPLERLEKLLTKEQLKAWMGKMQKKAVAISLPKGVVEVTHDLQKHLAGLGLTEAIDKNKADLSRMSGKKDLYLASVFHATAFEWDTEGNPFDQDFYGREELRSPKLFYADHPFIFLVRDNQSGSLLFIGRLVRPKGDKMRDEL
B5: Hsp47-HT, P19324 Y353F (protein)
chain: AEVKKPLEAAAPGTAEKLSSKATTLAERSTGLAFSLYQAMAKDQAVENILLSPLVVASSLGLVSLGGKATTASQAKAVLSAEKLRDEEVHTGLGELLRSLSNSTARNVTWKLGSRLYGPSSVSFADDFVRSSKQHYNCEHSKINFRDKRSALQSINEWASQTTDGKLPEVTKDVERTDGALLVNAMFFKPHWDEKFHHKMVDNRGFMVTRSYTVGVTMMHRTGLYNYYDDEKEKLQMVEMPLAHKLSSLIILMPHHVEPLERLEKLLTKEQLKAWMGKMQKKAVAISLPKGVVEVTHDLQKHLAGLGLTEAIDKNKADLSRMSGKKDLYLASVFHATAFEWDTEGNPFDQDIFGREELRSPKLFYADHPFIFLVRDNQSGSLLFIGRLVRPKGDKMRDEL
B6: Hsp47-HT, P19324 Y353R (protein)
chain: AEVKKPLEAAAPGTAEKLSSKATTLAERSTGLAFSLYQAMAKDQAVENILLSPLVVASSLGLVSLGGKATTASQAKAVLSAEKLRDEEVHTGLGELLRSLSNSTARNVTWKLGSRLYGPSSVSFADDFVRSSKQHYNCEHSKINFRDKRSALQSINEWASQTTDGKLPEVTKDVERTDGALLVNAMFFKPHWDEKFHHKMVDNRGFMVTRSYTVGVTMMHRTGLYNYYDDEKEKLQMVEMPLAHKLSSLIILMPHHVEPLERLEKLLTKEQLKAWMGKMQKKAVAISLPKGVVEVTHDLQKHLAGLGLTEAIDKNKADLSRMSGKKDLYLASVFHATAFEWDTEGNPFDQDIRGREELRSPKLFYADHPFIFLVRDNQSGSLLFIGRLVRPKGDKMRDEL
B7: Hsp47-HT, P19324 Y353E (protein)
chain: AEVKKPLEAAAPGTAEKLSSKATTLAERSTGLAFSLYQAMAKDQAVENILLSPLVVASSLGLVSLGGKATTASQAKAVLSAEKLRDEEVHTGLGELLRSLSNSTARNVTWKLGSRLYGPSSVSFADDFVRSSKQHYNCEHSKINFRDKRSALQSINEWASQTTDGKLPEVTKDVERTDGALLVNAMFFKPHWDEKFHHKMVDNRGFMVTRSYTVGVTMMHRTGLYNYYDDEKEKLQMVEMPLAHKLSSLIILMPHHVEPLERLEKLLTKEQLKAWMGKMQKKAVAISLPKGVVEVTHDLQKHLAGLGLTEAIDKNKADLSRMSGKKDLYLASVFHATAFEWDTEGNPFDQDIEGREELRSPKLFYADHPFIFLVRDNQSGSLLFIGRLVRPKGDKMRDEL
B8: Hsp47-HT, P19324 I352E (protein)
chain: AEVKKPLEAAAPGTAEKLSSKATTLAERSTGLAFSLYQAMAKDQAVENILLSPLVVASSLGLVSLGGKATTASQAKAVLSAEKLRDEEVHTGLGELLRSLSNSTARNVTWKLGSRLYGPSSVSFADDFVRSSKQHYNCEHSKINFRDKRSALQSINEWASQTTDGKLPEVTKDVERTDGALLVNAMFFKPHWDEKFHHKMVDNRGFMVTRSYTVGVTMMHRTGLYNYYDDEKEKLQMVEMPLAHKLSSLIILMPHHVEPLERLEKLLTKEQLKAWMGKMQKKAVAISLPKGVVEVTHDLQKHLAGLGLTEAIDKNKADLSRMSGKKDLYLASVFHATAFEWDTEGNPFDQDEYGREELRSPKLFYADHPFIFLVRDNQSGSLLFIGRLVRPKGDKMRDEL
B9: Hsp47-HT, P19324 I352R (protein)
chain: AEVKKPLEAAAPGTAEKLSSKATTLAERSTGLAFSLYQAMAKDQAVENILLSPLVVASSLGLVSLGGKATTASQAKAVLSAEKLRDEEVHTGLGELLRSLSNSTARNVTWKLGSRLYGPSSVSFADDFVRSSKQHYNCEHSKINFRDKRSALQSINEWASQTTDGKLPEVTKDVERTDGALLVNAMFFKPHWDEKFHHKMVDNRGFMVTRSYTVGVTMMHRTGLYNYYDDEKEKLQMVEMPLAHKLSSLIILMPHHVEPLERLEKLLTKEQLKAWMGKMQKKAVAISLPKGVVEVTHDLQKHLAGLGLTEAIDKNKADLSRMSGKKDLYLASVFHATAFEWDTEGNPFDQDRYGREELRSPKLFYADHPFIFLVRDNQSGSLLFIGRLVRPKGDKMRDEL
B10: Hsp47-HT, P19324 E356A (protein)
chain: AEVKKPLEAAAPGTAEKLSSKATTLAERSTGLAFSLYQAMAKDQAVENILLSPLVVASSLGLVSLGGKATTASQAKAVLSAEKLRDEEVHTGLGELLRSLSNSTARNVTWKLGSRLYGPSSVSFADDFVRSSKQHYNCEHSKINFRDKRSALQSINEWASQTTDGKLPEVTKDVERTDGALLVNAMFFKPHWDEKFHHKMVDNRGFMVTRSYTVGVTMMHRTGLYNYYDDEKEKLQMVEMPLAHKLSSLIILMPHHVEPLERLEKLLTKEQLKAWMGKMQKKAVAISLPKGVVEVTHDLQKHLAGLGLTEAIDKNKADLSRMSGKKDLYLASVFHATAFEWDTEGNPFDQDIYGRAELRSPKLFYADHPFIFLVRDNQSGSLLFIGRLVRPKGDKMRDEL
B11: Hsp47-HT, P19324 D351A (protein)
chain: AEVKKPLEAAAPGTAEKLSSKATTLAERSTGLAFSLYQAMAKDQAVENILLSPLVVASSLGLVSLGGKATTASQAKAVLSAEKLRDEEVHTGLGELLRSLSNSTARNVTWKLGSRLYGPSSVSFADDFVRSSKQHYNCEHSKINFRDKRSALQSINEWASQTTDGKLPEVTKDVERTDGALLVNAMFFKPHWDEKFHHKMVDNRGFMVTRSYTVGVTMMHRTGLYNYYDDEKEKLQMVEMPLAHKLSSLIILMPHHVEPLERLEKLLTKEQLKAWMGKMQKKAVAISLPKGVVEVTHDLQKHLAGLGLTEAIDKNKADLSRMSGKKDLYLASVFHATAFEWDTEGNPFDQAIYGREELRSPKLFYADHPFIFLVRDNQSGSLLFIGRLVRPKGDKMRDEL
B12: Hsp47-HT, P19324 Q350A (protein)
chain: AEVKKPLEAAAPGTAEKLSSKATTLAERSTGLAFSLYQAMAKDQAVENILLSPLVVASSLGLVSLGGKATTASQAKAVLSAEKLRDEEVHTGLGELLRSLSNSTARNVTWKLGSRLYGPSSVSFADDFVRSSKQHYNCEHSKINFRDKRSALQSINEWASQTTDGKLPEVTKDVERTDGALLVNAMFFKPHWDEKFHHKMVDNRGFMVTRSYTVGVTMMHRTGLYNYYDDEKEKLQMVEMPLAHKLSSLIILMPHHVEPLERLEKLLTKEQLKAWMGKMQKKAVAISLPKGVVEVTHDLQKHLAGLGLTEAIDKNKADLSRMSGKKDLYLASVFHATAFEWDTEGNPFDADIYGREELRSPKLFYADHPFIFLVRDNQSGSLLFIGRLVRPKGDKMRDEL
B13: Hsp47-HT, P19324 R355A (protein)
chain: AEVKKPLEAAAPGTAEKLSSKATTLAERSTGLAFSLYQAMAKDQAVENILLSPLVVASSLGLVSLGGKATTASQAKAVLSAEKLRDEEVHTGLGELLRSLSNSTARNVTWKLGSRLYGPSSVSFADDFVRSSKQHYNCEHSKINFRDKRSALQSINEWASQTTDGKLPEVTKDVERTDGALLVNAMFFKPHWDEKFHHKMVDNRGFMVTRSYTVGVTMMHRTGLYNYYDDEKEKLQMVEMPLAHKLSSLIILMPHHVEPLERLEKLLTKEQLKAWMGKMQKKAVAISLPKGVVEVTHDLQKHLAGLGLTEAIDKNKADLSRMSGKKDLYLASVFHATAFEWDTEGNPFDQDIYGAEELRSPKLFYADHPFIFLVRDNQSGSLLFIGRLVRPKGDKMRDEL

The first experiment concerns the target T1, colFD-NL. As to the kind of experiment: BRET. The note with it: chain shown with the change; in the ER of HEK293 cells; n = 4; parent: est. 100; read off a plot.
Regarding B1, the percent of parent amounted to 83%.
As to B2, the percent of parent worked out at 82%.
Still for that read-out and setting: the same measure for B3: 92%; for B4: 95%; for B5: 88%.
On the same count and under the same terms, under B6 stands 74%.
Same read-out and setting: the same measure for B7: 77%.
Consider B8, for which the percent of parent amounted to 83%.
Turning to B9, the percent of parent stood at 81%.

In another experiment the target is T1, colFD-NL. As to the kind of experiment: BRET. The note with it: chain shown with the change; in the ER of HEK293 cells; n = 4; parent: est. 100; read off a plot. The source holds these as a separate data set. (In BRET a luciferase serves as donor, and the signal depends on an acceptor being close.)
In the case of B1, the percent of parent was 84%.
Consider B10, for which the percent of parent amounted to 95%.
On the same count and under the same terms, under B11 stands 100%; under B12, 100%; under B13, 96%.
